Experimental findings from publication PMC7736784 (2020) are described below.

In this experiment the target is Sso7d-NanoLuc large fragment fusion.

NVTGYRLFKKISN [NS4] registered a Kd of 8.5 nM. For NVSGWRLFKKISN [NS5-Stoffel fusion (NanoLuc small fragment NS5)] the value was 3.4 nM; for GVTGWRLCERILA [NS6], 900 nM.
